Patent US20230058212A1 (UNIVERSIT DE BRETAGNE OCCIDENTALE UBO, published 2023)

How the values were obtained:
Peptide 1B = target: T1, Peptide 1B (biotinylated in the ELISA of Figure 3 A (site not given)); experiment: ELISA, DO492 - DO Blanc
T1 construct: also called STIM1 peptide 1B; aa 169 to aa 197
Procedure: (§1) FIG. 3 illustrated the validation by Elisa of the monoclonal anti-STIM1 antibody clone B-M4. […] Anti-STIM1 mAb clone B-M4 mAb (10 μg/ml) was diluted to 1/10 and antigens STIM1 biotinylated peptides used at concentrations of 50 ng/well for peptides 1A and 1B and 100 ng/well for peptide 2A and 10 ng/well for peptide 2B. Panel B: Specificity of the B-M4 antibody for STIM1 is confirmed by ELISA using the peptide 2B and a recombinant STIM1 EF/SAM peptide (1 μg/mL). B-M4 mAb used at 100 μg/mL diluted to 1/10. Panel C: Specificity for the B-M4 antibody for the peptide 2B over the other peptides (1A, 1B, 2A, 2B, C2, C3, C4, C5, C6, C7 and C8). Peptides are used at a concentration of 1 μg/mL. Histograms represents mean optical density measured using an Elisa approach.

Peptide 2A = target: T2, Peptide 2A (biotinylated in the ELISA of Figure 3 A (site not given)); experiment: ELISA, DO492 - DO Blanc
T2 construct: also called STIM1 peptide 2A; aa 62 to aa 95
T2 sequence (peptide, as listed by the source): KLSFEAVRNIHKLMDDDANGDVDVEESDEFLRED
Procedure: as §1

[1] = target: T3, recombinant STIM1 EF/SAM peptide (STIM1 aa 58-201) (human, UniProt Q13586 58-201); experiment: Octet, EF-SAM peptide at 300, 200 and 133 nM, 1 to 1 fitting model; column kdis, same value in all three rows [table]
T3 construct: also called soluble recombinant protein corresponding to the STIM1 EF-Hand domain
T3 sequence (Q13586 58-201): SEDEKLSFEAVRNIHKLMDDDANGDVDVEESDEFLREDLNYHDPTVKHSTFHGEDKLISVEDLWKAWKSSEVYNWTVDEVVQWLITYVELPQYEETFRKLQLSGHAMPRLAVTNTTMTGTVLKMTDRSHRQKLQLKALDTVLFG
Procedure: (§2) FIG. 9 represents the determination of the anti-STIM1 mAb clone B-M4 affinity. […] High affinity interaction is characterized by a low K, a fast recognizing (high kon) and a stable formation of complexes (low kdis). kdis: dissociation rate constant. kon: complex formation rate.
(§3) Affinity constants (Kon, Kdis) were calculated.

[2] = target: T3, recombinant STIM1 EF/SAM peptide (STIM1 …); experiment: Octet, EF-SAM peptide at 300, 200 and 133 nM, 1 to 1 fitting model; same value in all three rows [table]
Procedure: as §2, §3

[3] = target: T3, recombinant STIM1 EF/SAM peptide (STIM1 …); experiment: Octet (BLI), 1 to 1 fitting model, EF-SAM peptide at 300, 200 and 133 nM
Procedure: as §3

[4] = target: T4, mouse STIM1 at the plasma membrane of mouse spleen B and T cells (mouse, UniProt P70302 23-685); experiment: direct flow cytometry with PE coupled B-M4 on spleen B and T cells, n=4
T4 construct: whole, on cells; also called mSTIM1 (mice B and T cells)
T4 sequence (P70302 23-685): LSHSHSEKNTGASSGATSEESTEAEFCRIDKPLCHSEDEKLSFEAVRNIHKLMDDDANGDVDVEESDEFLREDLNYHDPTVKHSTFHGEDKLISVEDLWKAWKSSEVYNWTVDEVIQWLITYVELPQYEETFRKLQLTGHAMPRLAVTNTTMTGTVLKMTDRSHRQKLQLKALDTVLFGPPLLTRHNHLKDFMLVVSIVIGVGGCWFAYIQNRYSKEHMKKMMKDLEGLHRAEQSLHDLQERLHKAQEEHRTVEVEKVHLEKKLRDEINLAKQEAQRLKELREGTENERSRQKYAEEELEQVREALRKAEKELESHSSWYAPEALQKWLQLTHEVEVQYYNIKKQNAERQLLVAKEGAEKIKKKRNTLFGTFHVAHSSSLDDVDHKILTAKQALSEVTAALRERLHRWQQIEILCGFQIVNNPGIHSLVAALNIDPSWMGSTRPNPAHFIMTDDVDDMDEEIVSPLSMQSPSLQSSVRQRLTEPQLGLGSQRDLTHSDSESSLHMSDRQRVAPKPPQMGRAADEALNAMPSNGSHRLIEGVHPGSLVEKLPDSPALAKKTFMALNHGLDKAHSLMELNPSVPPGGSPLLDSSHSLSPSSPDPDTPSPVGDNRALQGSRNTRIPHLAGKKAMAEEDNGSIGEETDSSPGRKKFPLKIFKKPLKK

Peptide 1A = target: T5, Peptide 1A (biotinylated in the ELISA of Figure 3 A (site not given)); experiment: ELISA, DO492 - DO Blanc and DO492 - DO630
T5 construct: also called STIM1 peptide 1A; aa 128 to aa 168
T5 sequence (peptide, as listed by the source): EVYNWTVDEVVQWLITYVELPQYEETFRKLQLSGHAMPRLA
Procedure: as §1

[5] = target: T6, STIM1 peptide 2B (amino acids 97-127 of STIM1) (human, biotinylated in the ELISA of FIG. 3 panel A (position not given)); experiment: ELISA on Peptide 2B (aa 97-127), B-M4 titrated
T6 construct: One of the two immunization peptides
T6 sequence (peptide, as listed by the source): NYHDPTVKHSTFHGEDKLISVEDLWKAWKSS
Procedure: as §1

[6] = target: T3, recombinant STIM1 EF/SAM peptide (STIM1 …); experiment: ELISA on recombinant STIM1 EF-SAM peptide (aa 58-201) at 1 µg/mL, B-M4 titrated
Procedure: as §1

T1 sequence (peptide, as listed by the source): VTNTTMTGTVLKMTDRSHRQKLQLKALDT

B1: monoclonal anti-STIM1 antibody clone B-M4 (antibody, V domains shown)
VH: EVKLVESGGGLVQPGGSLKLSCAASGFTFSRYSMSWVRQTPEKRLEWVAHIRNGGGSTYYPDTVKGRFTISRDNAKNTLYLQMSSLKSEDTAMYYCARPPYGNYEGYFDVWGAGTTVTVSS
VL: DIVMSQSPSSLAVSAGEKVTMSCKSSQSLLNSRTRKNYLAWYQQKPGQSPKLLIYWASTRESGVPDRFTGSGSGTDFTLTISSVQAEDLAVYYCKQSYNLYTFGGGTKLEIK
notes: In the direct flow cytometry assays it was coupled to phycoerythrin (PE); also called B-M4 mAb; anti-STIM1 mAb clone B-M4
binding result (Peptide 1B): no binding
binding result (Peptide 2A): no binding
koff [1]: 0.000369 s⁻¹
kon [2]: 9960 M⁻¹ s⁻¹
Kd [3]: 37 nM
binding result [4]: binds
binding result (Peptide 1A): no binding
EC50 (read off the curve) [5]: ~0.02 µg/mL
EC50 (read off the curve) [6]: ~0.07 µg/mL
